T1: Len(1-22) monomer peptide (Homo sapiens (Human), UniProt P06312 21-42)
T1 construct: Analyte in SPR; on beads in the pulldown assay; also called Vκ4(LEN(1-22) beads)
T1 peptide: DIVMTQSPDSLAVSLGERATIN


These binders were tested against Per125 wtATTR extract (human, UniProt P02766 21-147) (assay: EuLISA).

EC50 [µM] | LogEC50 | Max | Binder
1.88 | 5.72 -log(M) | 209 | m11-1F4 (antibody, V domains shown, Murine monoclonal antibody; also called murine parent) VH: QVQLKESGPGLVAPSQSLSITCTVSGFSLSSYGVSWVRQPPGKGLEWLGVIWGDGSTNYHPNLMSRLSISKDISKSQVLFKLNSLQTDDTATYYCVTLDYWGQGTSVTVSS VL: DVVMTQTPLSLPVSLGDQASISCRSSQSLVHRNGNTYLHWYLQKPGQSPKLLIYKVSNRFSGVPDRFSGSGSGTDFTLKISRVEAEDLGLYFCFQTTYVPNTFGGGTKLEIK

The binders below were run against T2, TAL ALκ liver extract (assay: EuLISA).
T2 construct: Human AL amyloid extract; also called ALκ (TAL); ALκ TAL

LogEC50 | Max | Binder
~3.03 -log(M) | ~35100 | m11-1F4 (antibody, V domains shown, Murine monoclonal antibody; also called murine parent) VH: QVQLKESGPGLVAPSQSLSITCTVSGFSLSSYGVSWVRQPPGKGLEWLGVIWGDGSTNYHPNLMSRLSISKDISKSQVLFKLNSLQTDDTATYYCVTLDYWGQGTSVTVSS VL: DVVMTQTPLSLPVSLGDQASISCRSSQSLVHRNGNTYLHWYLQKPGQSPKLLIYKVSNRFSGVPDRFSGSGSGTDFTLKISRVEAEDLGLYFCFQTTYVPNTFGGGTKLEIK

What follows are binders tested against T3, SHI ALλ liver extract (assay: EuLISA).
T3 construct: Human AL amyloid extract; also called ALλ (SHI); ALλ SHI extract

LogEC50 | Max | Binder
~4.45 -log(M) | ~1510 | m11-1F4 (antibody, V domains shown, Murine monoclonal antibody; also called murine parent) VH: QVQLKESGPGLVAPSQSLSITCTVSGFSLSSYGVSWVRQPPGKGLEWLGVIWGDGSTNYHPNLMSRLSISKDISKSQVLFKLNSLQTDDTATYYCVTLDYWGQGTSVTVSS VL: DVVMTQTPLSLPVSLGDQASISCRSSQSLVHRNGNTYLHWYLQKPGQSPKLLIYKVSNRFSGVPDRFSGSGSGTDFTLKISRVEAEDLGLYFCFQTTYVPNTFGGGTKLEIK

The binders below were run against T4, rVλ6Wil fibrils (assay: EuLISA).
T4 construct: domain: λ6 variable domain; Synthetic amyloid-like fibrils; also called rVλWIL; rVλ6Wil synthetic fibrils

EC50 [µM] | LogEC50 | Max | Binder
0.543 | 6.26 -log(M) | 184 | m11-1F4 (antibody, V domains shown, Murine monoclonal antibody; also called murine parent) VH: QVQLKESGPGLVAPSQSLSITCTVSGFSLSSYGVSWVRQPPGKGLEWLGVIWGDGSTNYHPNLMSRLSISKDISKSQVLFKLNSLQTDDTATYYCVTLDYWGQGTSVTVSS VL: DVVMTQTPLSLPVSLGDQASISCRSSQSLVHRNGNTYLHWYLQKPGQSPKLLIYKVSNRFSGVPDRFSGSGSGTDFTLKISRVEAEDLGLYFCFQTTYVPNTFGGGTKLEIK

Target: T1, Len(1-22) monomer peptide
Test: SPR, antibody as ligand, peptide as analyte

Kd [µM] | koff [s⁻¹] | kon [M⁻¹ s⁻¹] | Binder
0.0304 | 0.00181 | 59500 | VH9 + VL4-G34A (antibody, V domains shown, Humanized 11-1F4 variant) VH: QVQLQESGPGLVKPSETLSLTCTVSGFSLSSYGVSWIRQPPGKGLEWLGVIWGDGSTNYHPNLMSRVTISVDTSKSQVLFKLSSVTAADTAVYYCATLDYWGQGTSVTVSS VL: DVVMTQSPLSLPVTLGQPASISCRSSQSLVHRNANTYLHWFQQRPGQSPRLLIYKVSNRFSGVPDRFSGSGSGTDFTLKISRVEAEDVGVYFCFQTTYVPNTFGGGTKLEIK
0.0669 | 0.000954 | 14300 | VH9 + VL4-N33S (antibody, V domains shown, Humanized 11-1F4 variant) VH: QVQLQESGPGLVKPSETLSLTCTVSGFSLSSYGVSWIRQPPGKGLEWLGVIWGDGSTNYHPNLMSRVTISVDTSKSQVLFKLSSVTAADTAVYYCATLDYWGQGTSVTVSS VL: DVVMTQSPLSLPVTLGQPASISCRSSQSLVHRSGNTYLHWFQQRPGQSPRLLIYKVSNRFSGVPDRFSGSGSGTDFTLKISRVEAEDVGVYFCFQTTYVPNTFGGGTKLEIK
0.0605 | 0.000139 | 2300 | VH9-D54S + VL4 (antibody, V domains shown, Humanized 11-1F4 variant) VH: QVQLQESGPGLVKPSETLSLTCTVSGFSLSSYGVSWIRQPPGKGLEWLGVIWGSGSTNYHPNLMSRVTISVDTSKSQVLFKLSSVTAADTAVYYCATLDYWGQGTSVTVSS VL: DVVMTQSPLSLPVTLGQPASISCRSSQSLVHRNGNTYLHWFQQRPGQSPRLLIYKVSNRFSGVPDRFSGSGSGTDFTLKISRVEAEDVGVYFCFQTTYVPNTFGGGTKLEIK
0.0885 | 0.001 | 11300 | VH9 + VL4-N33A (antibody, V domains shown, Humanized 11-1F4 variant) VH: QVQLQESGPGLVKPSETLSLTCTVSGFSLSSYGVSWIRQPPGKGLEWLGVIWGDGSTNYHPNLMSRVTISVDTSKSQVLFKLSSVTAADTAVYYCATLDYWGQGTSVTVSS VL: DVVMTQSPLSLPVTLGQPASISCRSSQSLVHRAGNTYLHWFQQRPGQSPRLLIYKVSNRFSGVPDRFSGSGSGTDFTLKISRVEAEDVGVYFCFQTTYVPNTFGGGTKLEIK
0.0133 | 0.00104 | 77900 | VH9-M64A + VL4 (antibody, V domains shown, Humanized 11-1F4 variant) VH: QVQLQESGPGLVKPSETLSLTCTVSGFSLSSYGVSWIRQPPGKGLEWLGVIWGDGSTNYHPNLASRVTISVDTSKSQVLFKLSSVTAADTAVYYCATLDYWGQGTSVTVSS VL: DVVMTQSPLSLPVTLGQPASISCRSSQSLVHRNGNTYLHWFQQRPGQSPRLLIYKVSNRFSGVPDRFSGSGSGTDFTLKISRVEAEDVGVYFCFQTTYVPNTFGGGTKLEIK
0.106 | 0.00131 | 12300 | VH9 + VL4-N33E (antibody, V domains shown, Humanized 11-1F4 variant) VH: QVQLQESGPGLVKPSETLSLTCTVSGFSLSSYGVSWIRQPPGKGLEWLGVIWGDGSTNYHPNLMSRVTISVDTSKSQVLFKLSSVTAADTAVYYCATLDYWGQGTSVTVSS VL: DVVMTQSPLSLPVTLGQPASISCRSSQSLVHREGNTYLHWFQQRPGQSPRLLIYKVSNRFSGVPDRFSGSGSGTDFTLKISRVEAEDVGVYFCFQTTYVPNTFGGGTKLEIK
0.0172 | 0.000484 | 28200 | VH9-G55A + VL4 (antibody, V domains shown, Humanized 11-1F4 variant) VH: QVQLQESGPGLVKPSETLSLTCTVSGFSLSSYGVSWIRQPPGKGLEWLGVIWGDASTNYHPNLMSRVTISVDTSKSQVLFKLSSVTAADTAVYYCATLDYWGQGTSVTVSS VL: DVVMTQSPLSLPVTLGQPASISCRSSQSLVHRNGNTYLHWFQQRPGQSPRLLIYKVSNRFSGVPDRFSGSGSGTDFTLKISRVEAEDVGVYFCFQTTYVPNTFGGGTKLEIK
2.18 | 0.000778 | 356 | VH9-D54A + VL4 (antibody, V domains shown, Humanized 11-1F4 variant) VH: QVQLQESGPGLVKPSETLSLTCTVSGFSLSSYGVSWIRQPPGKGLEWLGVIWGAGSTNYHPNLMSRVTISVDTSKSQVLFKLSSVTAADTAVYYCATLDYWGQGTSVTVSS VL: DVVMTQSPLSLPVTLGQPASISCRSSQSLVHRNGNTYLHWFQQRPGQSPRLLIYKVSNRFSGVPDRFSGSGSGTDFTLKISRVEAEDVGVYFCFQTTYVPNTFGGGTKLEIK
0.0207 | 0.00192 | 92900 | VH9-M64I + VL4 (antibody, V domains shown, Humanized 11-1F4 variant) VH: QVQLQESGPGLVKPSETLSLTCTVSGFSLSSYGVSWIRQPPGKGLEWLGVIWGDGSTNYHPNLISRVTISVDTSKSQVLFKLSSVTAADTAVYYCATLDYWGQGTSVTVSS VL: DVVMTQSPLSLPVTLGQPASISCRSSQSLVHRNGNTYLHWFQQRPGQSPRLLIYKVSNRFSGVPDRFSGSGSGTDFTLKISRVEAEDVGVYFCFQTTYVPNTFGGGTKLEIK
0.0224 | 0.00208 | 93000 | VH9-M64L + VL4 (antibody, V domains shown, Humanized 11-1F4 variant) VH: QVQLQESGPGLVKPSETLSLTCTVSGFSLSSYGVSWIRQPPGKGLEWLGVIWGDGSTNYHPNLLSRVTISVDTSKSQVLFKLSSVTAADTAVYYCATLDYWGQGTSVTVSS VL: DVVMTQSPLSLPVTLGQPASISCRSSQSLVHRNGNTYLHWFQQRPGQSPRLLIYKVSNRFSGVPDRFSGSGSGTDFTLKISRVEAEDVGVYFCFQTTYVPNTFGGGTKLEIK
0.483 | 0.00163 | 3380 | VH9-G55V + VL4 (antibody, V domains shown, Humanized 11-1F4 variant) VH: QVQLQESGPGLVKPSETLSLTCTVSGFSLSSYGVSWIRQPPGKGLEWLGVIWGDVSTNYHPNLMSRVTISVDTSKSQVLFKLSSVTAADTAVYYCATLDYWGQGTSVTVSS VL: DVVMTQSPLSLPVTLGQPASISCRSSQSLVHRNGNTYLHWFQQRPGQSPRLLIYKVSNRFSGVPDRFSGSGSGTDFTLKISRVEAEDVGVYFCFQTTYVPNTFGGGTKLEIK
0.163 | 0.00135 | 8280 | VH9-D54E + VL4 (antibody, V domains shown, Humanized 11-1F4 variant) VH: QVQLQESGPGLVKPSETLSLTCTVSGFSLSSYGVSWIRQPPGKGLEWLGVIWGEGSTNYHPNLMSRVTISVDTSKSQVLFKLSSVTAADTAVYYCATLDYWGQGTSVTVSS VL: DVVMTQSPLSLPVTLGQPASISCRSSQSLVHRNGNTYLHWFQQRPGQSPRLLIYKVSNRFSGVPDRFSGSGSGTDFTLKISRVEAEDVGVYFCFQTTYVPNTFGGGTKLEIK
0.0784 | 0.00104 | 13300 | VH9 + VL4-N33Q (antibody, V domains shown, Humanized 11-1F4 variant) VH: QVQLQESGPGLVKPSETLSLTCTVSGFSLSSYGVSWIRQPPGKGLEWLGVIWGDGSTNYHPNLMSRVTISVDTSKSQVLFKLSSVTAADTAVYYCATLDYWGQGTSVTVSS VL: DVVMTQSPLSLPVTLGQPASISCRSSQSLVHRQGNTYLHWFQQRPGQSPRLLIYKVSNRFSGVPDRFSGSGSGTDFTLKISRVEAEDVGVYFCFQTTYVPNTFGGGTKLEIK
0.0566 | 0.000743 | 13100 | VH9 + VL4-N33H (antibody, V domains shown, Humanized 11-1F4 variant) VH: QVQLQESGPGLVKPSETLSLTCTVSGFSLSSYGVSWIRQPPGKGLEWLGVIWGDGSTNYHPNLMSRVTISVDTSKSQVLFKLSSVTAADTAVYYCATLDYWGQGTSVTVSS VL: DVVMTQSPLSLPVTLGQPASISCRSSQSLVHRHGNTYLHWFQQRPGQSPRLLIYKVSNRFSGVPDRFSGSGSGTDFTLKISRVEAEDVGVYFCFQTTYVPNTFGGGTKLEIK
0.0218 | 0.00052 | 23800 | VH9-M64V + VL4 (antibody, V domains shown, Humanized 11-1F4 variant) VH: QVQLQESGPGLVKPSETLSLTCTVSGFSLSSYGVSWIRQPPGKGLEWLGVIWGDGSTNYHPNLVSRVTISVDTSKSQVLFKLSSVTAADTAVYYCATLDYWGQGTSVTVSS VL: DVVMTQSPLSLPVTLGQPASISCRSSQSLVHRNGNTYLHWFQQRPGQSPRLLIYKVSNRFSGVPDRFSGSGSGTDFTLKISRVEAEDVGVYFCFQTTYVPNTFGGGTKLEIK
0.256 | 0.000997 | 3900 | VH9-D54Q + VL4 (antibody, V domains shown, Humanized 11-1F4 variant) VH: QVQLQESGPGLVKPSETLSLTCTVSGFSLSSYGVSWIRQPPGKGLEWLGVIWGQGSTNYHPNLMSRVTISVDTSKSQVLFKLSSVTAADTAVYYCATLDYWGQGTSVTVSS VL: DVVMTQSPLSLPVTLGQPASISCRSSQSLVHRNGNTYLHWFQQRPGQSPRLLIYKVSNRFSGVPDRFSGSGSGTDFTLKISRVEAEDVGVYFCFQTTYVPNTFGGGTKLEIK
0.235 | 0.00139 | 5930 | VH9-D54H + VL4 (antibody, V domains shown, Humanized 11-1F4 variant) VH: QVQLQESGPGLVKPSETLSLTCTVSGFSLSSYGVSWIRQPPGKGLEWLGVIWGHGSTNYHPNLMSRVTISVDTSKSQVLFKLSSVTAADTAVYYCATLDYWGQGTSVTVSS VL: DVVMTQSPLSLPVTLGQPASISCRSSQSLVHRNGNTYLHWFQQRPGQSPRLLIYKVSNRFSGVPDRFSGSGSGTDFTLKISRVEAEDVGVYFCFQTTYVPNTFGGGTKLEIK
